These results are taken from the supplement of paper PMC9732359.

± gives the uncertainty stated by the source.

A short description of the data set: protein stability index of a GFP-peptide fusion (yeast GPS) (PSI 1-4); higher = more stable; sorted into four equal gates, so the index is relative within each strain. The essentials:
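Mid-log yeast cultures in leucine-free medium, carrying a pooled plasmid library, were sorted into four equal gates by their GFP/Cherry fluorescence ratio. Each plasmid expressed Cherry along with GFP fused upstream of a tiled 17-residue yeast protein peptide. Plasmids recovered from each gate were PCR-amplified and Illumina-sequenced, with reads assigned to strains by barcodes. The protein stability index was obtained by summing each gate's read frequency weighted by its gate number.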

On to EFTENELNVDSMDVDDK [ITC1], for which the protein stability index (doa10∆) is 3.18 ± 0.16, the protein stability index (pdr5∆) amounted to 3.24 ± 0.19, the protein stability index (san1∆) is 3.31 ± 0.11 and the protein stability index (ubr1∆) came out at 3.25 ± 0.093.

Consider STPENVPRLFDLVKPKN [SMC4], for which the protein stability index by setting is: (doa10∆) 2.65 ± 0.077; (pdr5∆) 3.11 ± 0.087; (san1∆) 2.65 ± 0.12; (ubr1∆) 2.81 ± 0.053.

On to LQKQMGIGSLTDLMSIV [RPC34], for which the protein stability index came out at 1.91 ± 0.11 (doa10∆), 2.04 ± 0.13 (pdr5∆), 2.68 ± 0.12 (san1∆) and 1.86 ± 0.14 (ubr1∆).

In the case of ISRERDLFTHLWNQWLK [SRP68], the protein stability index is, setting by setting: (doa10∆) 3.04 ± 0.12; (pdr5∆) 3.06 ± 0.12; (san1∆) 2.99 ± 0.055; (ubr1∆) 2.93 ± 0.11.

Take VYAQQSTVQTPITASMA [PGD1]: the protein stability index was determined as 1.59 ± 0.056 (doa10∆), 1.95 ± 0.079 (pdr5∆), 1.51 ± 0.09 (san1∆) and 1.86 ± 0.042 (ubr1∆).

As for LADYIVEVLLVNYNSDM [NUT1], the protein stability index was 1.28 ± 0.047 (doa10∆), 1.35 ± 0.037 (pdr5∆), 1.39 ± 0.14 (san1∆) and 1.2 ± 0.039 (ubr1∆).

Regarding KYNVNISALTQTEIKDI [PRP8], the protein stability index worked out at 2.6 ± 0.082 (doa10∆), 2.57 ± 0.083 (pdr5∆), 2.18 ± 0.067 (san1∆) and 2.75 ± 0.051 (ubr1∆).

KLHVNWNLNATKPNVLN [SIN4]: the protein stability index is, setting by setting: (doa10∆) 2.94 ± 0.17; (pdr5∆) 2.86 ± 0.11; (san1∆) 2.85 ± 0.11; (ubr1∆) 2.93 ± 0.098.

IEQCKHPLHELIIQYPP [ISW2]: the protein stability index by setting is: (doa10∆) 3.19 ± 0.1; (pdr5∆) 2.82 ± 0.094; (san1∆) 2.59 ± 0.1; (ubr1∆) 3.1 ± 0.068.

Regarding VRELGILCIFEGEKCHP [SEC65], the protein stability index came out at 2.01 ± 0.052 (doa10∆), 2.43 ± 0.064 (pdr5∆), 2.67 ± 0.051 (san1∆) and 2.45 ± 0.042 (ubr1∆).

The sequence PSKLVITKLHLDKDRKA [RPL26A] showed a protein stability index (doa10∆) of 1.73 ± 0.18, a protein stability index (pdr5∆) of 1.75 ± 0.086, a protein stability index (san1∆) of 1.75 ± 0.28 and a protein stability index (ubr1∆) of 1.21 ± 0.099.

As to DTYRTLMEEIESLKKEL [YIL149C/MLP2], the protein stability index runs as follows: (doa10∆) 3.16 ± 0.1; (pdr5∆) 3.36 ± 0.092; (san1∆) 3.4 ± 0.07; (ubr1∆) 3.35 ± 0.068.

On to RREELQQRIREIGLLPE [SMC3], for which the protein stability index is, setting by setting: (doa10∆) 3.34 ± 0.12; (pdr5∆) 3.06 ± 0.2; (san1∆) 3.21 ± 0.075; (ubr1∆) 3.45 ± 0.066.

As to ADLMALENATWTMRIEG [SNF12], the protein stability index was 2.94 ± 0.11 (doa10∆), 3.05 ± 0.13 (pdr5∆), 3.17 ± 0.12 (san1∆) and 3.07 ± 0.081 (ubr1∆).

Regarding PLRDNGLLDESPNRLRV [YML031W/NDC1], the protein stability index came to 3.2 ± 0.14 (doa10∆), 3.03 ± 0.1 (pdr5∆), 3.15 ± 0.08 (san1∆) and 3.39 ± 0.074 (ubr1∆).

On to YHFPIFNKYADPTLTTT [RPN4], for which the protein stability index is, setting by setting: (doa10∆) 2.05 ± 0.037; (pdr5∆) 2.22 ± 0.048; (san1∆) 2.24 ± 0.048; (ubr1∆) 2.3 ± 0.036.

DFSLRYISNLLYGVTIC [REC8] gave a protein stability index (doa10∆) of 2.13 ± 0.039, a protein stability index (pdr5∆) of 1.71 ± 0.041, a protein stability index (san1∆) of 1.83 ± 0.074 and a protein stability index (ubr1∆) of 1.5 ± 0.027.

Take RDIFQEDEENSDVLLFQ [RGR1]: the protein stability index was 3.37 ± 0.061 (doa10∆), 3.46 ± 0.071 (pdr5∆), 3.4 ± 0.039 (san1∆) and 3.23 ± 0.035 (ubr1∆).

Take PSSMATLLKNLRKKLNF [YJR042W/NUP85]: the protein stability index by setting is: (doa10∆) 2.91 ± 0.078; (pdr5∆) 2.73 ± 0.075; (san1∆) 2.91 ± 0.079; (ubr1∆) 2.89 ± 0.066.

Turning to KSAENIIKMTIPYAAKL [RET1], the protein stability index reads like this: (doa10∆) 2.27 ± 0.1; (pdr5∆) 2.48 ± 0.11; (san1∆) 2.89 ± 0.15; (ubr1∆) 2.32 ± 0.09.

In the case of ADGPTMREITETIAEAK [RPO21], the protein stability index by setting is: (doa10∆) 3.46 ± 0.074; (pdr5∆) 3.45 ± 0.055; (san1∆) 3.39 ± 0.026; (ubr1∆) 3.39 ± 0.041.

KENFILDSLMKTTRLLL [YJL039C/NUP192]: the protein stability index by setting is: (doa10∆) 1.96 ± 0.057; (pdr5∆) 1.64 ± 0.05; (san1∆) 1.42 ± 0.095; (ubr1∆) 1.61 ± 0.05.

On to DKDVKAKYETSILEHSG [FAS2], for which the protein stability index stood at 3.36 ± 0.058 (doa10∆), 3.33 ± 0.065 (pdr5∆), 3.23 ± 0.052 (san1∆) and 3.37 ± 0.064 (ubr1∆).

For the sequence KLLDDNPTEFDWPTYVD [SRB8], the protein stability index is, setting by setting: (doa10∆) 3.11 ± 0.072; (pdr5∆) 3.29 ± 0.061; (san1∆) 3.01 ± 0.042; (ubr1∆) 2.99 ± 0.058.

In the case of LQNNSDSESDSDSETNH [SKP1], the protein stability index reads like this: (doa10∆) 2.76 ± 0.065; (pdr5∆) 3.19 ± 0.074; (san1∆) 2.84 ± 0.055; (ubr1∆) 2.82 ± 0.082.

As for TIELAGGGYFSAAGMTA [FAS1], the protein stability index turned out to be 2.87 ± 0.12 (doa10∆), 3.19 ± 0.11 (pdr5∆), 1.9 ± 0.16 (san1∆) and 2.84 ± 0.14 (ubr1∆).

For PNETSEIAQANSRNAIR [RPL19A], the protein stability index was 2.7 ± 0.15 (doa10∆), 2.92 ± 0.095 (pdr5∆), 2.54 ± 0.14 (san1∆) and 3.05 ± 0.13 (ubr1∆).

Take KQLQLAMHNSKAASSTR [POP1]: the protein stability index by setting is: (doa10∆) 1.96 ± 0.057; (pdr5∆) 2.17 ± 0.071; (san1∆) 1.54 ± 0.11; (ubr1∆) 1.74 ± 0.037.

For the sequence KLKQGQKLFVQVSNFAP [GAL11], the protein stability index (doa10∆) came out at 2.74 ± 0.063, the protein stability index (pdr5∆) stood at 2.81 ± 0.057, the protein stability index (san1∆) was 3.01 ± 0.051 and the protein stability index (ubr1∆) turned out to be 2.84 ± 0.05.

On to PFIKSESKPFSSDALSK [SIR4], for which the protein stability index (doa10∆) worked out at 3.17 ± 0.07, the protein stability index (pdr5∆) came to 3.15 ± 0.09, the protein stability index (san1∆) turned out to be 3.2 ± 0.046 and the protein stability index (ubr1∆) was determined as 3.13 ± 0.061.

For the sequence LFEQIGIRIKGKIVGFD [SME1], the protein stability index (doa10∆) was 1.92 ± 0.12, the protein stability index (pdr5∆) came to 1.85 ± 0.1, the protein stability index (san1∆) came to 1.48 ± 0.2 and the protein stability index (ubr1∆) stood at 1.89 ± 0.096.

For the sequence QEQYQTNTFEGSGNNNE [SNU114], the protein stability index (pdr5∆) came out at 3.59 ± 0.23 and the protein stability index (san1∆) was determined as 3.3 ± 0.13.

Turning to LLAEYDNIYRNLQKIDK [MED4], the protein stability index is, setting by setting: (doa10∆) 2.4 ± 0.048; (pdr5∆) 2.69 ± 0.042; (san1∆) 2.61 ± 0.05; (ubr1∆) 2.32 ± 0.028.

Take YSPIEKESPWKILMYQY [RRP6]: the protein stability index was 1.75 ± 0.063 (doa10∆), 1.89 ± 0.062 (pdr5∆), 1.35 ± 0.11 (san1∆) and 1.44 ± 0.054 (ubr1∆).

As to DFILSLLHHVSELDSND [YJL039C/NUP192], the protein stability index was 1.93 ± 0.071 (doa10∆), 1.88 ± 0.064 (pdr5∆), 1.42 ± 0.11 (san1∆) and 2.4 ± 0.054 (ubr1∆).

With EILVTELTAQGYDPALL [RPN2], the protein stability index came out at 2.8 ± 0.27 (doa10∆), 3.36 ± 0.15 (pdr5∆) and 3.28 ± 0.1 (ubr1∆).

With AESEAITVTAKQQPTMQ [SWI3], the protein stability index turned out to be 3.14 ± 0.083 (doa10∆), 3.22 ± 0.063 (pdr5∆), 2.88 ± 0.071 (san1∆) and 3.04 ± 0.035 (ubr1∆).
